Results: publication PMC9482650, “Quantitative fragmentomics allow affinity mapping of interactomes” (Nature Communications, 2022)

What was measured:
Experiment in all cases: holdup assay
Design in all cases: key: below the threshold = too weak to quantify, mostly under pKd 3.1 to 4
Details in all cases: plain residues with an end cap or a label only (N-terminal biotin on a linker: ado-ado)
SCRIB_3, Q14160 = biological target: SCRIB_3, Q14160
Inadl_4, Q8NI35 = biological target: Inadl_4, Q8NI35
Chain of Inadl_4, Q8NI35 (Q8NI35 547-651): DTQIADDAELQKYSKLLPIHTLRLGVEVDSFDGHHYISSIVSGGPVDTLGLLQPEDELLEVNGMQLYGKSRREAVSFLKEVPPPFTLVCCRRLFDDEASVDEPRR

PDZRN3_1, Q9UPQ7 = biological target: T1, PDZRN3_1, Q9UPQ7
T1 sequence (Q9UPQ7 244-349, limits assumed, looked up): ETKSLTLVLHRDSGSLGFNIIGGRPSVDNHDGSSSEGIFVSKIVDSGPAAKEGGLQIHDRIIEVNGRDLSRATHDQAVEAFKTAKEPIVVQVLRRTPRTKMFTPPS

LRRC7, Q96NW7 = biological target: T2, LRRC7, Q96NW7
T2 sequence (Q96NW7 1440-1537, limits assumed, looked up): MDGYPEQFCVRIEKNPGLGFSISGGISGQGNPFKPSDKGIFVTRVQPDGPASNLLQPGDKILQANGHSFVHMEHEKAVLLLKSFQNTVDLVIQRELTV

SCRIB_1, Q14160 = biological target: SCRIB_1, Q14160
Chain of SCRIB_1, Q14160 (Q14160 718-814): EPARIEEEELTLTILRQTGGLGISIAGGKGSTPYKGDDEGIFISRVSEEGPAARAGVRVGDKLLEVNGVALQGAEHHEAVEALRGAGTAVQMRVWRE

MPDZ_5, O75970 = biological target: T3, MPDZ_5, O75970
T3 sequence (O75970 695-796, limits assumed, looked up): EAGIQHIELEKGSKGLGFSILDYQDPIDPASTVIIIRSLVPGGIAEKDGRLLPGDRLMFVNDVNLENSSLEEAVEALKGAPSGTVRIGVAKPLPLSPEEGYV

Inadl_3, Q8NI35 = biological target: Inadl_3, Q8NI35
Chain of Inadl_3, Q8NI35 (Q8NI35 359-469): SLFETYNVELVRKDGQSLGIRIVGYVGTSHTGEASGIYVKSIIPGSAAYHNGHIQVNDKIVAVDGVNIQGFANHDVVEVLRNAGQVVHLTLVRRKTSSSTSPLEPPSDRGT

GORASP2, Q9H8Y8 = biological target: GORASP2, Q9H8Y8
Inadl_1, Q8NI35 = biological target: Inadl_1, Q8NI35
Chain of Inadl_1, Q8NI35 (Q8NI35 113-229): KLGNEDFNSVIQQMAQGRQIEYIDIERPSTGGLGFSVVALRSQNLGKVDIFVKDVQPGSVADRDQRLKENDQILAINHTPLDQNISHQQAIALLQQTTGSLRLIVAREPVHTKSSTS

DLG2_3, Q15700 = biological target: DLG2_3, Q15700
GORASP1, Q9BQQ3 = biological target: GORASP1, Q9BQQ3
Chain of GORASP1, Q9BQQ3 (Q9BQQ3 1-208): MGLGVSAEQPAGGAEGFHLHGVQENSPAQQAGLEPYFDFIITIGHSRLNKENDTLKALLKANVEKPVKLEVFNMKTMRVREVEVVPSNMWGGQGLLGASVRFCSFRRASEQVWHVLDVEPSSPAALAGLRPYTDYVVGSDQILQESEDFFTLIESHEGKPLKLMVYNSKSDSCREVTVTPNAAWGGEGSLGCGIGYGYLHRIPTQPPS

MPDZ_10, O75970 = biological target: T4, MPDZ_10, O75970
T4 sequence (O75970 1624-1722, limits assumed, looked up): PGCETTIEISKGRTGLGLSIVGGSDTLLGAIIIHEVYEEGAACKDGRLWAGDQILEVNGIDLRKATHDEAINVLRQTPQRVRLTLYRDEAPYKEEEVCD

TJP1_2, Q07157 = biological target: TJP1_2, Q07157
Chain of TJP1_2, Q07157 (Q07157 181-274): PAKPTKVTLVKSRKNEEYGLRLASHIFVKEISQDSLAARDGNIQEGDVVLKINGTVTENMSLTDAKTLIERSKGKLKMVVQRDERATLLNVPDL

ARHGAP21, Q5T5U3 = biological target: T5, ARHGAP21, Q5T5U3
T5 sequence (Q5T5U3 45-169, limits assumed, looked up): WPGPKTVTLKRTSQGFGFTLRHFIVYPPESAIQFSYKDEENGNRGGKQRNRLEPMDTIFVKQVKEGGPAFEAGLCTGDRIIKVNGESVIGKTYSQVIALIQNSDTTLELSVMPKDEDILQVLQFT

SNTB1, Q13884 = biological target: T6, SNTB1, Q13884
T6 sequence (Q13884 107-205, limits assumed, looked up): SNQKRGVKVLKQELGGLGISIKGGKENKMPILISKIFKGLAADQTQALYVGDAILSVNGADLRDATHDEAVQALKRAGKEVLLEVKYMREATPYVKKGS

DLG4_1, P78352 = biological target: DLG4_1, P78352
Chain of DLG4_1, P78352 (P78352 62-152): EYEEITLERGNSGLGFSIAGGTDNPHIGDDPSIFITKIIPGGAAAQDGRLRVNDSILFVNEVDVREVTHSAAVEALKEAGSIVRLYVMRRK

DFNB31_2, Q9P202 = biological target: T7, DFNB31_2, Q9P202
T7 sequence (Q9P202 274-371, limits assumed, looked up): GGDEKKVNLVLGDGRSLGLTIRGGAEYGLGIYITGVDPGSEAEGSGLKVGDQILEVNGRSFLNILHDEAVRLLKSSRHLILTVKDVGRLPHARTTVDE

NHERF4_4, Q86UT5 = biological target: NHERF4_4, Q86UT5
Chain of NHERF4_4, Q86UT5 (Q86UT5 464-550): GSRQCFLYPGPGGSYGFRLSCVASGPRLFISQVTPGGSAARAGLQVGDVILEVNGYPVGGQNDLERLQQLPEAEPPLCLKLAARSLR

MPP7, Q5T2T1 = biological target: T8, MPP7, Q5T2T1
T8 sequence (Q5T2T1 134-230, limits assumed, looked up): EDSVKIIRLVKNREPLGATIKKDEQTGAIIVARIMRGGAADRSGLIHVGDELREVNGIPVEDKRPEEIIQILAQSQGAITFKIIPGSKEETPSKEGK

FRMPD1, Q5SYB0 = biological target: T9, FRMPD1, Q5SYB0
T9 sequence (Q5SYB0 52-145, limits assumed, looked up): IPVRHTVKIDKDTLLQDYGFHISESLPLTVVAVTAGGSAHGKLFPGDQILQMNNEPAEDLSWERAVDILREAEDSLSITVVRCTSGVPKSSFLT

IL16_1, Q14005 = biological target: IL16_1, Q14005
Chain of IL16_1, Q14005 (Q14005 210-306): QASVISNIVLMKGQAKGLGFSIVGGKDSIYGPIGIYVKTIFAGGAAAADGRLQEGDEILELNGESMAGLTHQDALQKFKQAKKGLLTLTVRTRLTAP

NHERF4_1, Q86UT5-2 = biological target: NHERF4_1, Q86UT5-2
Chain of NHERF4_1, Q86UT5-2 (Q86UT5 other isoform, or with tags, fused parts or gaps): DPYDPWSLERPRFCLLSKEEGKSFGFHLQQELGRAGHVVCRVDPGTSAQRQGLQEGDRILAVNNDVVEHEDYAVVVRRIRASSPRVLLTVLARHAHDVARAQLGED

PDLIM1, O00151 = biological target: PDLIM1, O00151
Chain of PDLIM1, O00151 (O00151 1-87): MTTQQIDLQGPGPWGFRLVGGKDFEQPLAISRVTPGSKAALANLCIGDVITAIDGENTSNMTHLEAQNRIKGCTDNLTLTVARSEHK

GRIP2_6, Q9C0E4 = biological target: GRIP2_6, Q9C0E4
Chain of GRIP2_6, Q9C0E4 (Q9C0E4 648-740): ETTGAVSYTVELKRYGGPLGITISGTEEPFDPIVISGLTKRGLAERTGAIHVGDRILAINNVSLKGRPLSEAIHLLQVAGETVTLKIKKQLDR

HTRA3, P83110 = biological target: T10, HTRA3, P83110
T10 sequence (P83110 354-453, limits assumed, looked up): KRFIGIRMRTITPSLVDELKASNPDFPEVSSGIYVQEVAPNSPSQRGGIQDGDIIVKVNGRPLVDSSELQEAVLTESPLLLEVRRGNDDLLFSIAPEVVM

FRMPD2_2, Q68DX3 = biological target: FRMPD2_2, Q68DX3
Chain of FRMPD2_2, Q68DX3 (Q68DX3 944-1038): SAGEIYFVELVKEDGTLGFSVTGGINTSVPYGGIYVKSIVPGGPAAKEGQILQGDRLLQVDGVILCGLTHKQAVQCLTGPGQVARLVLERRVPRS

RHPN1, Q8TCX5 = biological target: T11, RHPN1, Q8TCX5
T11 sequence (Q8TCX5 508-602, limits assumed, looked up): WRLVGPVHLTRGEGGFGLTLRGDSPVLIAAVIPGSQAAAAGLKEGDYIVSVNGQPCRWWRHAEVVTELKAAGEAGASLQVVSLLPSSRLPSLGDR

Chain of SCRIB_3, Q14160 (Q14160 999-1103): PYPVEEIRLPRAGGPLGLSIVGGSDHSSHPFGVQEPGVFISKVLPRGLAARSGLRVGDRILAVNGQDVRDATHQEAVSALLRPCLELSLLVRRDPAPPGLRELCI

Binder: YAEKRMLTEV [KCNA6, P17658]
- pKd (SCRIB_3, Q14160): 3.52
- pKd (Inadl_4, Q8NI35): below the threshold
- pKd (PDZRN3_1, Q9UPQ7): below the threshold
- pKd (LRRC7, Q96NW7): below the threshold
- pKd (SCRIB_1, Q14160): 3.63
- pKd (MPDZ_5, O75970): below the threshold
- pKd (Inadl_3, Q8NI35): below the threshold
- pKd (GORASP2, Q9H8Y8): 3.92
- pKd (Inadl_1, Q8NI35): below the threshold
- pKd (DLG2_3, Q15700): 3.98
- pKd (GORASP1, Q9BQQ3): below the threshold
- pKd (MPDZ_10, O75970): below the threshold
- pKd (TJP1_2, Q07157): below the threshold
- pKd (ARHGAP21, Q5T5U3): below the threshold
- pKd (SNTB1, Q13884): below the threshold
- pKd (DLG4_1, P78352): 3.65
- pKd (DFNB31_2, Q9P202): below the threshold
- pKd (NHERF4_4, Q86UT5): below the threshold
- pKd (MPP7, Q5T2T1): below the threshold
- pKd (FRMPD1, Q5SYB0): below the threshold
- pKd (IL16_1, Q14005): below the threshold
- pKd (NHERF4_1, Q86UT5-2): below the threshold
- pKd (PDLIM1, O00151): below the threshold
- pKd (GRIP2_6, Q9C0E4): below the threshold
- pKd (HTRA3, P83110): below the threshold
- pKd (FRMPD2_2, Q68DX3): below the threshold
- pKd (RHPN1, Q8TCX5): 3.8

Binder: GVHSNDHSVV [LPAR1, Q92633]
- pKd (SCRIB_3, Q14160): below the threshold
- pKd (Inadl_4, Q8NI35): below the threshold
- pKd (PDZRN3_1, Q9UPQ7): below the threshold
- pKd (LRRC7, Q96NW7): below the threshold
- pKd (SCRIB_1, Q14160): below the threshold
- pKd (MPDZ_5, O75970): below the threshold
- pKd (Inadl_3, Q8NI35): below the threshold
- pKd (GORASP2, Q9H8Y8): 3.61
- pKd (Inadl_1, Q8NI35): below the threshold
- pKd (DLG2_3, Q15700): below the threshold
- pKd (GORASP1, Q9BQQ3): 3.48
- pKd (MPDZ_10, O75970): below the threshold
- pKd (TJP1_2, Q07157): below the threshold
- pKd (ARHGAP21, Q5T5U3): below the threshold
- pKd (SNTB1, Q13884): 3.69
- pKd (DLG4_1, P78352): below the threshold
- pKd (DFNB31_2, Q9P202): below the threshold
- pKd (NHERF4_4, Q86UT5): below the threshold
- pKd (MPP7, Q5T2T1): below the threshold
- pKd (FRMPD1, Q5SYB0): below the threshold
- pKd (IL16_1, Q14005): 4.02
- pKd (NHERF4_1, Q86UT5-2): below the threshold
- pKd (PDLIM1, O00151): below the threshold
- pKd (GRIP2_6, Q9C0E4): below the threshold
- pKd (HTRA3, P83110): below the threshold
- pKd (FRMPD2_2, Q68DX3): below the threshold
- pKd (RHPN1, Q8TCX5): 3.78

Binder: WAKEKQHTRL [SLC17A1, Q14916]
- pKd (SCRIB_3, Q14160): 4.11
- pKd (Inadl_4, Q8NI35): below the threshold
- pKd (PDZRN3_1, Q9UPQ7): 3.79
- pKd (LRRC7, Q96NW7): below the threshold
- pKd (SCRIB_1, Q14160): 4.21
- pKd (MPDZ_5, O75970): below the threshold
- pKd (Inadl_3, Q8NI35): below the threshold
- pKd (GORASP2, Q9H8Y8): below the threshold
- pKd (Inadl_1, Q8NI35): below the threshold
- pKd (DLG2_3, Q15700): below the threshold
- pKd (GORASP1, Q9BQQ3): below the threshold
- pKd (MPDZ_10, O75970): below the threshold
- pKd (TJP1_2, Q07157): below the threshold
- pKd (ARHGAP21, Q5T5U3): 3.81
- pKd (SNTB1, Q13884): 3.82
- pKd (DLG4_1, P78352): 3.82
- pKd (DFNB31_2, Q9P202): below the threshold
- pKd (NHERF4_4, Q86UT5): below the threshold
- pKd (MPP7, Q5T2T1): below the threshold
- pKd (FRMPD1, Q5SYB0): below the threshold
- pKd (IL16_1, Q14005): below the threshold
- pKd (NHERF4_1, Q86UT5-2): 4.07
- pKd (PDLIM1, O00151): below the threshold
- pKd (GRIP2_6, Q9C0E4): below the threshold
- pKd (HTRA3, P83110): below the threshold
- pKd (FRMPD2_2, Q68DX3): below the threshold
- pKd (RHPN1, Q8TCX5): 3.97
